Assay results taken from paper PMC12905440, “Biochemical principles of miRNA targeting in flies”.

Tests used:
[1] = molecular target: T1, Ago1 (RISC, embryo lysate) (Drosophila w[*]; AGO2[414] embryos, 0-8 …, UniProt A1Z9J5 1-950); test: competition; let-7 guide; RBNS: 20 mM HEPES-KOH pH 7.9, 100 mM KOAc, 3.5 mM Mg(OAc)2, 0.05% CHAPS, 2 mM DTT, 8% glycerol, BSA, tRNA, 25 C, 2 h; filter binding: 25 mM HEPES-KOH pH 7.9, 110 mM KOAc, 3.5 mM Mg(OAc)2, 2 mM DTT, 25 C; competition: 18 mM HEPES-KOH pH 7.4, 100 mM KOAc, 3 mM Mg(OAc)2, 5 mM DTT, 25 C; details: protein: native; g2-21 paired, G:U at g4 and g5
[2] = molecular target: T1, Ago1 (RISC, embryo lysate); test: competition; let-7 guide; reference; RBNS: 20 mM HEPES-KOH pH 7.9, 100 mM KOAc, 3.5 mM Mg(OAc)2, 0.05% CHAPS, 2 mM DTT, 8% glycerol, BSA, tRNA, 25 C, 2 h; filter binding: 25 mM HEPES-KOH pH 7.9, 110 mM KOAc, 3.5 mM Mg(OAc)2, 2 mM DTT, 25 C; competition: 18 mM HEPES-KOH pH 7.4, 100 mM KOAc, 3 mM Mg(OAc)2, 5 mM DTT, 25 C; details: protein: native; g2-21 paired
[3] = molecular target: T1, Ago1 (RISC, embryo lysate); test: competition; let-7 guide; nearly same affinity as fully complementary; RBNS: 20 mM HEPES-KOH pH 7.9, 100 mM KOAc, 3.5 mM Mg(OAc)2, 0.05% CHAPS, 2 mM DTT, 8% glycerol, BSA, tRNA, 25 C, 2 h; filter binding: 25 mM HEPES-KOH pH 7.9, 110 mM KOAc, 3.5 mM Mg(OAc)2, 2 mM DTT, 25 C; competition: 18 mM HEPES-KOH pH 7.4, 100 mM KOAc, 3 mM Mg(OAc)2, 5 mM DTT, 25 C; details: protein: native; g2-21 paired, G:U at g4
FLAG-Ago1 (RISC) [4] = molecular target: T2, FLAG-Ago1 (RISC) (Drosophila melanogaster, UniProt A1Z9J5 1-950); test: RNA Bind-n-Seq (filter binding, sequencing, MLE); miR-11 guide; 20 mM HEPES-KOH pH 7.9, 100 mM potassium acetate, 3.5 mM magnesium acetate, 0.05% CHAPS, 2 mM DTT, 8% glycerol, 0.05 ug/ul BSA, 0.01 mg/ml yeast tRNA, 100 nM RNA library, 25 C, 2 h; details: protein: recombinant; tags: FLAG
FLAG-Ago1 (RISC) [5] = molecular target: T2, FLAG-Ago1 (RISC); test: RNA Bind-n-Seq (filter binding, sequencing, MLE); let-7 guide; 20 mM HEPES-KOH pH 7.9, 100 mM potassium acetate, 3.5 mM magnesium acetate, 0.05% CHAPS, 2 mM DTT, 8% glycerol, 0.05 ug/ul BSA, 0.01 mg/ml yeast tRNA, 100 nM RNA library, 25 C, 2 h; details: protein: recombinant; tags: FLAG; t2-t8 plus t1A

T1 sequence (A1Z9J5 entry or part of it): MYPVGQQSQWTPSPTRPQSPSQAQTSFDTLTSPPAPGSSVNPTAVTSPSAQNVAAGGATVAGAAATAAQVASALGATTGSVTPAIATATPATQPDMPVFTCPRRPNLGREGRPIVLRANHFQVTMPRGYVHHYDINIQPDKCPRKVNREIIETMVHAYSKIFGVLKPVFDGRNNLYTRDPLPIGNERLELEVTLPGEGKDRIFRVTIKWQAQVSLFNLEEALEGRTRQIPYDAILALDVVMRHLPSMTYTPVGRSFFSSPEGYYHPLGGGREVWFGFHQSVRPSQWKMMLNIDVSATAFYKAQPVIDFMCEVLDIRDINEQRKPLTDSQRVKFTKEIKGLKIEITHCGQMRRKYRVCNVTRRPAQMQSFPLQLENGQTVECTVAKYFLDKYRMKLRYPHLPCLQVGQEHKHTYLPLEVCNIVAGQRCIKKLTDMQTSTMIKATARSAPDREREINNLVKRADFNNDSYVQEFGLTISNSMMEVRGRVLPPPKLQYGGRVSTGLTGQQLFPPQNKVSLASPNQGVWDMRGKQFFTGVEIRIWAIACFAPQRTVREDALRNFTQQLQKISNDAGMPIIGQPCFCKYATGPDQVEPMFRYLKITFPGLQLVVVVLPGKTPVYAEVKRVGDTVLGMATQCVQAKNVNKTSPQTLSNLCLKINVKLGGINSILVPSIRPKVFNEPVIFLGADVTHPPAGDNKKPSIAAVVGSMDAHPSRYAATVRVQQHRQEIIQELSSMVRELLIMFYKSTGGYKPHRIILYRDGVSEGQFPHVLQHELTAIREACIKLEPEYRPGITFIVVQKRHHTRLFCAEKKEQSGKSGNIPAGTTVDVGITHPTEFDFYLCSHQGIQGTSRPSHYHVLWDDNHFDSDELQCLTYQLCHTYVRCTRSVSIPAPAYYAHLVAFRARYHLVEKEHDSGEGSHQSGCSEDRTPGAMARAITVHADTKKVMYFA
T2 sequence (A1Z9J5 entry or part of it): as above

B1: let-7 guide / g2-21 target, G:U at positions 4-5 (dsRNA)
RNA 1: GAUACUAUACAACCUACUAUUUCAACCU
RNA 2: UGAGGUAGUAGGUUGUAUAGU
modifications: 2'-O-methyl C and U around a phosphorothioate (CmCpsmU) in target
- binding signal [1]: 120 fold lower affinity

B2: let-7 guide / g2-21 complementary target (dsRNA)
RNA 1: GAUACUAUACAACCUACUACCUCAACCU
RNA 2: UGAGGUAGUAGGUUGUAUAGU
modifications: 2'-O-methyl C and U around a phosphorothioate (CmCpsmU) in target
- binding result [2]: binds

B3: let-7 guide / g2-21 target, G:U at position 4 (dsRNA)
RNA 1: GAUACUAUACAACCUACUACUUCAACCU
RNA 2: UGAGGUAGUAGGUUGUAUAGU
modifications: 2'-O-methyl C and U around a phosphorothioate (CmCpsmU) in target
- binding result [3]: binds

B4: miR-11 / 6mer-A1 (mixed)
RNA 1: GUGAUA
RNA 2: CAUCACAGUCUGAGUUCUUGC
modifications: guide 5' phosphate
- Kd (FLAG-Ago1 (RISC) [4]): 404 ± 99.6 pM

B5: miR-11 / 6mer (mixed)
RNA 1: UGUGAU
RNA 2: CAUCACAGUCUGAGUUCUUGC
modifications: guide 5' phosphate
- Kd (FLAG-Ago1 (RISC) [4]): 388 ± 90.6 pM

B6: let-7 / 8mer (mixed)
RNA 1: CUACCUCA
RNA 2: UGAGGUAGUAGGUUGUAUAGU
modifications: guide 5' phosphate
- Kd (FLAG-Ago1 (RISC) [5]): 5 ± 1.69 pM
